From publication PMC10397247

How the values were obtained:
4H1878-AA = target: T1, 4H1878-AA; test: two-hybrid library CCmax; details: mean of both orientations;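 note: natural log of median RNA to DNA barcode read ratio; higher means stronger binding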
T1 chain: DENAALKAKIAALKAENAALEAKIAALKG

4H3414-AA = target: T2, 4H3414-AA; test: two-hybrid library CCmax; details: mean of both orientations;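 note: natural log of median RNA to DNA barcode read ratio; higher means stronger binding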
T2 chain: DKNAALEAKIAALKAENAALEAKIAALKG

4H380-AA = target: T3, 4H380-AA; test: two-hybrid library CCmax; details: mean of both orientations;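 note: natural log of median RNA to DNA barcode read ratio; higher means stronger binding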
T3 chain: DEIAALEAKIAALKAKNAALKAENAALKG

4H464-AA = target: T4, 4H464-AA; test: two-hybrid library CCmax; details: mean of both orientations;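 note: natural log of median RNA to DNA barcode read ratio; higher means stronger binding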
T4 chain: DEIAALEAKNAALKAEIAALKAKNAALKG

4H341-AA = target: T5, 4H341-AA; test: two-hybrid library CCmax; details: mean of both orientations;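 note: natural log of median RNA to DNA barcode read ratio; higher means stronger binding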
T5 chain: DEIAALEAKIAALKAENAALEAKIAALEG

4H3595-AA = target: T6, 4H3595-AA; test: two-hybrid library CCmax; details: mean of both orientations;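 note: natural log of median RNA to DNA barcode read ratio; higher means stronger binding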
T6 chain: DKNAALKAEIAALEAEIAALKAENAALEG

4H63-AA = target: T7, 4H63-AA; test: two-hybrid library CCmax; details: mean of both orientations
T7 chain: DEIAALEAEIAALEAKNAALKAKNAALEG

4H3777-AA = target: T8, 4H3777-AA; test: two-hybrid library CCmax; details: mean of both orientations
T8 chain: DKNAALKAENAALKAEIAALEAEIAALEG

4H446-AA = target: T9, 4H446-AA; test: two-hybrid library CCmax; details: mean of both orientations
T9 chain: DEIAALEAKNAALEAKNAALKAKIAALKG

4H1384-AA = target: T10, 4H1384-AA; test: two-hybrid library CCmax; details: mean of both orientations
T10 chain: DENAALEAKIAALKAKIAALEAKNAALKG

P2-AA-1HGe-A = target: T11, P2-AA-1HGe-A; test: two-hybrid library CCmax
T11 chain: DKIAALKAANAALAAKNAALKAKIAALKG

4H1913-AA = target: T12, 4H1913-AA; test: two-hybrid library CCmax; details: mean of both orientations
T12 chain: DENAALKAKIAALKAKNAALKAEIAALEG

4H3129-AA = target: T13, 4H3129-AA; test: two-hybrid library CCmax; details: mean of both orientations
T13 chain: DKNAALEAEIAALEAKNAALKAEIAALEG

4H235-AA = target: T14, 4H235-AA; test: two-hybrid library CCmax; details: mean of both orientations
T14 chain: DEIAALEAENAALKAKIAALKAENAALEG

4H3782-AA = target: T15, 4H3782-AA; test: two-hybrid library CCmax; details: mean of both orientations
T15 chain: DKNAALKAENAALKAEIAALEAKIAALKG

4H2903-AA = target: T16, 4H2903-AA; test: two-hybrid library CCmax; details: mean of both orientations
T16 chain: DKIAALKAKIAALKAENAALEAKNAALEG

4H1360-AA = target: T17, 4H1360-AA; test: two-hybrid library CCmax; details: mean of both orientations
T17 chain: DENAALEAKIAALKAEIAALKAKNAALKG

4H2961-AA = target: T18, 4H2961-AA; test: two-hybrid library CCmax; details: mean of both orientations
T18 chain: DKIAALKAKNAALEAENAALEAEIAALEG

4H2699-AA = target: T19, 4H2699-AA; test: two-hybrid library CCmax; details: mean of both orientations
T19 chain: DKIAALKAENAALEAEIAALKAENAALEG

4H483-AA = target: T20, 4H483-AA; test: two-hybrid library CCmax; details: mean of both orientations
T20 chain: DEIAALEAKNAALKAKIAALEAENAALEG

4H3915-AA = target: T21, 4H3915-AA; test: two-hybrid library CCmax; details: mean of both orientations
T21 chain: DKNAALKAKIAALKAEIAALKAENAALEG

4H1449-AA = target: T22, 4H1449-AA; test: two-hybrid library CCmax; details: mean of both orientations
T22 chain: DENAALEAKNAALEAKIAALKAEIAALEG

4H3094-AA = target: T23, 4H3094-AA; test: two-hybrid library CCmax; details: mean of both orientations
T23 chain: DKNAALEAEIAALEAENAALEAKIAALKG

4H1558-AA = target: T24, 4H1558-AA; test: two-hybrid library CCmax; details: mean of both orientations
T24 chain: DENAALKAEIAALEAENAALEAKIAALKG

4H249-AA = target: T25, 4H249-AA; test: two-hybrid library CCmax; details: mean of both orientations
T25 chain: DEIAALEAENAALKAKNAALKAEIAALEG

4H3939-AA = target: T26, 4H3939-AA; test: two-hybrid library CCmax; details: mean of both orientations
T26 chain: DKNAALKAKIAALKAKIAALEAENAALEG

4H324-AA = target: T27, 4H324-AA; test: two-hybrid library CCmax; details: mean of both orientations
T27 chain: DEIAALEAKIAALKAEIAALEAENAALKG

4H3449-AA = target: T28, 4H3449-AA; test: two-hybrid library CCmax; details: mean of both orientations
T28 chain: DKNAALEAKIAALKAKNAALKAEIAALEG

4H2947-AA = target: T29, 4H2947-AA; test: two-hybrid library CCmax; details: mean of both orientations
T29 chain: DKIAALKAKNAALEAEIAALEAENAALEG

4H1454-AA = target: T30, 4H1454-AA; test: two-hybrid library CCmax; details: mean of both orientations
T30 chain: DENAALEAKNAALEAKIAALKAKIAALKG

4H2760-AA = target: T31, 4H2760-AA; test: two-hybrid library CCmax; details: mean of both orientations
T31 chain: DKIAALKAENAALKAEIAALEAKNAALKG

4H2580-AA = target: T32, 4H2580-AA; test: two-hybrid library CCmax; details: mean of both orientations
T32 chain: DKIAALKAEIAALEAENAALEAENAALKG

4H3974-AA = target: T33, 4H3974-AA; test: two-hybrid library CCmax; details: mean of both orientations
T33 chain: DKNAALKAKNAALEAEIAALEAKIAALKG

4H2621-AA = target: T34, 4H2621-AA; test: two-hybrid library CCmax; details: mean of both orientations
T34 chain: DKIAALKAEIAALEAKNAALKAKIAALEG

4H1593-AA = target: T35, 4H1593-AA; test: two-hybrid library CCmax; details: mean of both orientations
T35 chain: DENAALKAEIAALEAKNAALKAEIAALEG

4H3619-AA = target: T36, 4H3619-AA; test: two-hybrid library CCmax; details: mean of both orientations
T36 chain: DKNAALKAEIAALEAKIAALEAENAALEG

4H3629-AA = target: T37, 4H3629-AA; test: two-hybrid library CCmax; details: mean of both orientations
T37 chain: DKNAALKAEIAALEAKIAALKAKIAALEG

4H3049-AA = target: T38, 4H3049-AA; test: two-hybrid library CCmax; details: mean of both orientations
T38 chain: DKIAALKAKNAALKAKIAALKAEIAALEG

4H3969-AA = target: T39, 4H3969-AA; test: two-hybrid library CCmax; details: mean of both orientations
T39 chain: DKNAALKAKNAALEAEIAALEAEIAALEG

4H2604-AA = target: T40, 4H2604-AA; test: two-hybrid library CCmax; details: mean of both orientations
T40 chain: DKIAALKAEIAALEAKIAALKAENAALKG

4H2728-AA = target: T41, 4H2728-AA; test: two-hybrid library CCmax; details: mean of both orientations
T41 chain: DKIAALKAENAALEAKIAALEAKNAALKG

4H432-AA = target: T42, 4H432-AA; test: two-hybrid library CCmax; details: mean of both orientations
T42 chain: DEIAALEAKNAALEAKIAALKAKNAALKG

4H2774-AA = target: T43, 4H2774-AA; test: two-hybrid library CCmax; details: mean of both orientations
T43 chain: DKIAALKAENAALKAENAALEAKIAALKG

4H342-bA = target: T44, 4H342-bA; test: two-hybrid library CCNG1
T44 chain: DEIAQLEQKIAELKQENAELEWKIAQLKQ

4H953-bH = target: T45, 4H953-bH; test: two-hybrid library CCNG1
T45 chain: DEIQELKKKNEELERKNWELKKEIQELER

4H2691-bA = target: T46, 4H2691-bA; test: two-hybrid library CCNG1
T46 chain: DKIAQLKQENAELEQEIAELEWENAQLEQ

4H3070-bA = target: T47, 4H3070-bA; test: two-hybrid library CCNG1
T47 chain: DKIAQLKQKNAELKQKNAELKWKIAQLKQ

4H3632-bA = target: T48, 4H3632-bA; test: two-hybrid library CCNG1
T48 chain: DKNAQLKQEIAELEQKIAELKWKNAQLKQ

4H496-bA = target: T49, 4H496-bA; test: two-hybrid library CCNG1
T49 chain: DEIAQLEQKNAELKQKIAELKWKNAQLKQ

## DENAALEAKIAALKAEIAALEAKIAALEG [4H1349-AA]
4H1878-AA
  interaction score: -0.906
4H3414-AA
  interaction score: -0.92
4H380-AA
  interaction score: -0.754
4H464-AA
  interaction score: -0.554
4H341-AA
  interaction score: -0.142
4H3595-AA
  interaction score: 1.05
4H63-AA
  interaction score: -0.724
4H3777-AA
  interaction score: -0.808
4H446-AA
  interaction score: -1.37
4H1384-AA
  interaction score: 1.03
P2-AA-1HGe-A
  interaction score: -1.79
4H1913-AA
  interaction score: -0.124
4H3129-AA
  interaction score: 0.123
4H235-AA
  interaction score: -2.02
4H3782-AA
  interaction score: 0.414
4H2903-AA
  interaction score: -0.278
4H1360-AA
  interaction score: 0.392
4H2961-AA
  interaction score: -2.4
4H2699-AA
  interaction score: -1.39
4H483-AA
  interaction score: -1.07
4H3915-AA
  interaction score: 0.312
4H1449-AA
  interaction score: -0.154
4H3094-AA
  interaction score: -0.703
4H1558-AA
  interaction score: -0.218
4H249-AA
  interaction score: -2.14
4H3939-AA
  interaction score: 0.491
4H324-AA
  interaction score: 1.84
4H3449-AA
  interaction score: -0.531
4H2947-AA
  interaction score: -1.49
4H1454-AA
  interaction score: -0.224
4H2760-AA
  interaction score: -0.562
4H2580-AA
  interaction score: -0.799
4H3974-AA
  interaction score: 0.171
4H2621-AA
  interaction score: 2.18
4H1593-AA
  interaction score: 0.813
4H3619-AA
  interaction score: 0.504
4H3629-AA
  interaction score: 2.08
4H3049-AA
  interaction score: -0.0176
4H3969-AA
  interaction score: -1.13
4H2604-AA
  interaction score: 1.42
4H2728-AA
  interaction score: -1.04
4H432-AA
  interaction score: -1.21
4H2774-AA
  interaction score: -2.01

## DKIAQLKQENAELEQEIAELEWENAQLEQ [4H2691-bA]
4H342-bA
  interaction score: -0.443
4H953-bH
  interaction score: -0.501
4H2691-bA
  interaction score: -1.17
4H3070-bA
  interaction score: 0.439
4H3632-bA
  interaction score: -0.861
4H496-bA
  interaction score: -3.04
